Assay results taken from patent US20240043548A1, “PREPARATION AND USE OF ANTI-FSHR ANTIBODY AND ANTIBODY-DRUG CONJUGATE THEREOF” (CANWELL (GZ) BIOTECH LIMITED, priority 2020, published 2024).
Where a SMILES comes first, the peptide text is derived from it. [ ]: non-standard residue; d: D form. Dolaproine = CO[C@@H]([C@@H]1CCCN1)[C@@H](C)C(=O)O; Dil = CC[C@H](C)[C@H](NC)[C@@H](CC(=O)O)OC; NMeV = CN[C@H](C(=O)O)C(C)C

Experiments:
OVCAR-3 = experiment: Cell killing assay, OVCAR-3; format: cell-based; details: OVCAR-3 human ovarian cancer cell line
Method: (§1) In this example, the anti-cancer effect of CAN001 antibody-drug conjugate was tested with CellTiter-Glo cell viability assay in a 96-well plate.
(§2) Human ovarian cancer cell lines: OVCAR-3, A2780, and 3A0, all from ATCC.
(§3) Cells were seeded in a 96-well cell culture plate with 1,000 cells per well, and the total amount of the culture medium per well was controlled to 200 μL. After the cells adhered to the wall, the cells were treated with corresponding drugs, and the drugs were withdrawn at different time points (0, 24 h, 48 h, 72 h and 96 h), and MTS detection solution (10 μL MTS reagent+190 μL complete medium) (MTS cell proliferation kit (colorimetry) from AmyJet Scientific) was added. Then, the 96-well cell culture plate was incubated in a CO2 cell incubator for about 2 h away from light. Then, the cell culture plate was taken out and was measured at a wavelength of 492 nm to determine the absorbances of different groups of cells.
(§4) % inhibition and IC50 of each compound were calculated with XLFit curve fitting software.

A2780 = experiment: Cell killing assay, A2780; format: cell-based; details: A2780 human ovarian cancer cell line
Method: as §1, §2, §3, §4

3AO = experiment: Cell killing assay, 3AO; format: cell-based; details: 3AO human ovarian cancer cell line
Method: as §1, §2, §3, §4

human FSHR = target: T1, human FSHR (Homo sapiens, UniProt P23945); experiment: Flow cytometry analysis of CAN001 antibody on HEK293T cells expressing FSHR; format: binding; details: for positive stained rate of the HEK293T cells: HEK293T cells expressing FSHR
T1 construct: a fragment containing the FSHR gene was obtained by PCR with the cDNA as a template and FSHR-F and FSHR-R as primers; expressed in transfected cells; host or cells: HEK293T
T1 sequence (P23945 18-695): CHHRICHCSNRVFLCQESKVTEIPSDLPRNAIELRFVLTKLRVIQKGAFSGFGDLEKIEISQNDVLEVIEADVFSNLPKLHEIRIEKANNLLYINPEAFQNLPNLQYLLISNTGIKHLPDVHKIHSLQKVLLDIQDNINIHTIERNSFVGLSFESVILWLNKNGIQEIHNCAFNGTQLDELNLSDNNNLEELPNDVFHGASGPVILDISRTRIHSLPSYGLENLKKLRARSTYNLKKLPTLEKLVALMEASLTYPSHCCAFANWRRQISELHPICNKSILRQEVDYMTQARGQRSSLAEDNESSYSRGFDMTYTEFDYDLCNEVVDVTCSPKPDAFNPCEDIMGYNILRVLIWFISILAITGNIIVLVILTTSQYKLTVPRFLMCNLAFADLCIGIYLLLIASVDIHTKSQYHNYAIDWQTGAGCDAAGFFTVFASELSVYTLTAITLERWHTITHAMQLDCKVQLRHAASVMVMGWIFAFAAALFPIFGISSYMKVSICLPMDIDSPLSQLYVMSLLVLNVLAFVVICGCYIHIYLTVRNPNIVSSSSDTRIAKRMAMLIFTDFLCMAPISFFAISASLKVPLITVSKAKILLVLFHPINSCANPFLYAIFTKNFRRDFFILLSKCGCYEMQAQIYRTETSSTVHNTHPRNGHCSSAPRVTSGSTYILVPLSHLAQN
Method: HEK293T cells were transfected with pMSGβ3_FSHR plasmid to obtain HEK293T cells expressing FSHR as the experimental group. HEK293T cells were transfected with pmaxGFP(Lonza) to obtain HEK293T cells expressing GFP protein as the negative control. After incubation with the supernatant containing the CAN001 antibody obtained in Example 3, the cells of the experimental group and negative control were stained with the CAN001 antibody and then the cells were washed and incubated with APC conjugated goat anti-mouse IgG secondary antibody. Flow cytometry was done with BD calibur and analyzed with Cellquest software.
In order to further screen the best CAN001 supernatant, HEK293T cells were co-transfected with a mixture of plasmids pcDNA3.1_CAN001 HC and pcDNA3.1_CAN001 LC with different proportions (mass ratios of pcDNA3.1_CAN001 HC to pcDNA3.1_CAN001 LC from left to right in FIG. 3 were 1:2, 1:1 and 1:3 respectively) and 25 kD linear PEI polymer according to a mass ratio of vector to polymer of 1:3. Seventy-two hours after transfection, the supernatant was collected and used to stain HEK293T cells expressing FSHR, and HEK293T cells expressing GFP protein were used as the negative control. The steps were as described above. […] The mass ratio of pcDNA3.1_CAN001 HC to pcDNA3.1_CAN001 LC of 1:2 was selected to prepare the supernatant containing CAN001 antibody.

CC[C@H](C)[C@@H]([C@@H](CC(=O)N1CCC[C@H]1[C@H](OC)[C@@H](C)C(=O)N[C@@H](Cc1ccccc1)C(=O)O)OC)N(C)C(=O)[C@@H](NC(=O)[C@@H](NC)C(C)C)C(C)C [MMAF, monomethylauristatin F] (H-[NMeV]V[Dil][Dolaproine]F-OH)
IC50 (OVCAR-3): 205 nM
IC50 (A2780): 223 nM
IC50 (3AO): 301 nM

B1: CAN001: Mouse anti-human FSHR monoclonal antibody; light chain SEQ ID NO: 3, heavy chain SEQ ID NO: 4 (protein)
light: MALPVTALLLPLALLLHAARPQIVLTQSPVIMSASPGEKVTLTCSASSSVSSSYLYWYQQKPGSSSKLWIYSTSNLASGVPARFSGSGSGTSYSLTISSMEAEDAASYFCHQWSSYPPTFGGGTKLEIKRADAAPTVSIFPPSSEQLTSGGASVVCFLNNFYPKDINVKWKIDGSERQNGVLNSWTDQDSKDSTYSMSSTLTLTKDEYERHNSYTCEATHKTSTSPIVKSFNRNEC
heavy: MEFGLSWVFLVALFRGVQCASQVQLQQPGAELVKPGASVNLSCKASGYTFTSYWMHWVKQRPGQGREWIGEINPRNGRTNYNEKFKSKATLTVDKSSSTAYMQLSSLTSEDSAVYCCARLSVGFAYWGQGTLVTVSAAKTTAPSVYPLAPVCGDTTGSSVTLGCLVKGYFPEPVTLTWNSGSLSSGVHTFPAVLQSDLYTLSSSVTVTSSTWPSQSITCNVAHPASSTKVDKKLEPRGPTIKPCPPCKCPAPNAAGGPSVFIFPPKIKDVLMISLSPIVTCVVVDVSEDDPDVQISWFVNNVEVHTAQTQTHREDYNSTLRVVSALPIQHQDWMSGKEFKCKVNNKDLGAPIERTISKPKGSVRAPQVYVLPPPEEEMTKKQVTLTCMVTDFMPEDIYVEWTNNGKTELNYKNTEPVLDSDGSYFMYSKLRVEKKNWVERNSYSCSVVHEGLHNHHTTKSFSRTPGK
modifications: Light chain amino acid sequence; Heavy chain amino acid sequence
staining of FSHR-expressing versus GFP-expressing HEK293T cells (human FSHR; supernatant containing CAN001 antibody, APC goat anti-mouse IgG secondary, GFP-expressing cells as negative control): specifically stained FHSR-expressing cells but not GFP-expressing cells
positive stained rate of the HEK293T cells (human FSHR; supernatant from mass ratio pcDNA3.1_CAN001 HC to LC 1:1): 30.02%
positive stained rate of the HEK293T cells (human FSHR; supernatant from mass ratio pcDNA3.1_CAN001 HC to LC 1:2): 38.3%
positive stained rate of the HEK293T cells (human FSHR; supernatant from mass ratio pcDNA3.1_CAN001 HC to LC 1:3): 34.75%
IC50 (OVCAR-3): > 1000 nM
